Results from the supplement of paper PMC11865577.

Columns and labels:
Test in all cases: pull-down binding Z-score (relative to library population); higher = stronger binding
[1] = test system: G-clamp-N3 (biotin conjugate); conditions: RNA library: Library-1 (pre-miRNA loops + repeats)
Outline: (§1)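 Biotin-conjugated small molecule (100 pmol) on streptavidin beads was incubated with 1 μg of heat-folded Cy5- or Cy3-end-labelled RNA library in phosphate/NaCl/KCl buffer at 25 °C for 60 min. Following three washes, RNA was eluted with hot SDS and hybridised at 55.5 °C for 20 h to a DNA barcode microarray. The binding value is a Z-score computed from the library mean and standard deviation, after subtraction of beads without compound and averaging of barcoded replicate probes with the highest and lowest excluded.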

[2] = test system: TO-3-N3 (biotin conjugate); conditions: RNA library: Library-2
Outline: as §1

[3] = test system: TO-3-N3-2 (biotin conjugate); conditions: RNA library: Library-2
Outline: as §1

TO-N3 (biotin conjugate) = conditions: RNA library: Library-2
Outline: as §1

[4] = test system: TO-N3-2 (biotin conjugate); conditions: RNA library: Library-2
Outline: as §1

Sequence | pull-down binding Z-score [1] | pull-down binding Z-score [2] | pull-down binding Z-score [3] | pull-down binding Z-score (TO-N3 (biotin conjugate)) | pull-down binding Z-score [4]
AGCUUCUACGUCAUUCAGCACUUGCU [hsa-mir-5706] | -0.819 | -0.62 | -0.211 | -0.601 | -0.31
AGCUUCUUUAUAAGAAGAGGAAACU [hsa-mir-3923] | -0.169 | 0.147 | 0.00803 | -0.151 | -0.5
AGCUUUAUGUAUUCUGAAGUUAUUGAAAAUAAGAGCU [hsa-mir-3140] | -0.628 | -0.877 | -0.254 | -1.1 | -0.911
AGGACACAGGCUGGCACUGAGGUCCC [hsa-mir-6887] | -0.394 | 0.0768 | -0.0807 | 0.639 | 1.41
AGGACGGUGCGCCUUGUUUCCC [hsa-mir-3132] | -1.1 | -0.376 | -0.0152 | 0.0408 | 0.529
AGGAGAAGGUGAGACCAAUGUCCUGGGUGCCACUCCU [hsa-mir-6124] | 0.515 | -0.524 | -0.00463 | -0.503 | -0.139
AGGAGGGUCC [hsa-mir-3141] | -0.0548 | 0.419 | 0.356 | 0.766 | 1.02
AGGAGUUCACU [hsa-mir-1183] | -0.952 | -0.276 | -0.383 | -0.253 | 0.0749
AGGCAACAUGGCCGAGAGGCCGGGGCCU [hsa-mir-564] | 2.93 | -0.144 | -0.533 | -0.12 | 0.551
AGGCACAUAUGUGAACAUUGUACCA [hsa-mir-5707] | -0.48 | 0.023 | 0.00393 | 0.0876 | -0.108
AGGCAUGGGUGGCU [hsa-mir-8085] | 0.379 | 0.237 | 0.062 | 0.428 | 0.625
AGGCAUUAGGAUCCUUAUUCUUGCCU [hsa-mir-4788] | -0.175 | -0.238 | -0.442 | -0.559 | -0.364
AGGCCAUACGUGUUGGAGAUU [hsa-mir-4461] | 0.253 | 0.627 | 0.301 | 0.792 | 0.79
AGGCCGACGAGCAGCGCAUCCUCUUACCCGGCUA [hsa-mir-138-2] | -1.48 | 0.181 | 0.171 | 1.11 | 1.95
AGGCCGUUGCCAAUCAGAGAACGGCUA [hsa-mir-138-1] | -0.677 | 1.23 | 0.52 | 1.47 | 1.43
AGGCCUGAGUCUCUCUGCUGCAGAUGGGCUC [hsa-mir-422a] | -0.38 | -0.112 | -0.0262 | 0.668 | 1.29
AGGCUCUGCAAGAUCAACCGAGCA [hsa-mir-330] | -0.474 | 0.196 | 0.141 | 0.492 | 0.739
AGGCUCUGGGUCCGGCUUACUCCCUAGCUUACUGUCCUCAGAACCC [hsa-mir-6071] | -0.386 | -0.173 | 0.226 | 0.311 | 0.924
AGGCUGGUCUCAAACUCCU [hsa-mir-5096] | -0.82 | -0.118 | -0.228 | -0.0712 | 0.128

Sequence | pull-down binding Z-score [1] | pull-down binding Z-score [2] | pull-down binding Z-score [3] | pull-down binding Z-score (TO-N3 (biotin conjugate)) | pull-down binding Z-score [4]
AGGCUGUCUUCAUUCCCUCUUGACCACCC [hsa-mir-6795] | -1.03 | 1.19 | 0.213 | 1.29 | 0.709
AGGCUUGGCACUUGAGGGAAAGCCU [hsa-mir-8059] | 2.67 | 0.451 | 0.0114 | 0.646 | 0.469
AGGGACCCCCGGAGUCUGUCACGGUCUCA [hsa-mir-6784] | -0.402 | -0.0169 | 0.215 | 0.353 | 0.955
AGGGCAAGUCCAAAGGUAUACAGUUGGUCUGUUCA [hsa-mir-7107] | 1.04 | -0.459 | -0.208 | -0.107 | 0.381
AGGGCAGCUCCCAUGACUGCCUGACCGC [hsa-mir-6880] | -0.549 | 0.15 | 0.266 | 0.663 | 1.4
AGGGCAGGGGUGUGGCU [hsa-mir-4751] | 0.725 | 3.21 | 2.67 | 2.8 | 1.93
AGGGCCUUCUGAGCCCAGGUCCG [hsa-mir-6716] | 0.286 | 0.611 | 0.018 | 0.886 | 1.46
AGGGCUGGGAUUACUAAAGCCCU [hsa-mir-1266] | 1.24 | -0.0287 | -0.105 | -0.158 | -0.335
AGGGGACACGGGCAAAGACUUGGGGGUUCCUGGGACCCUCAGACGUGUGUCCUCU [hsa-mir-877] | 0.447 | 0.252 | 0.297 | 0.632 | 0.581
AGGGGUCAUAUCUCUUCUCAGGGAAAGCAGGAGCCCUUCAGCAGGGUCAGGGCCCCU [hsa-mir-6891] | 1.5 | 0.705 | 0.263 | 0.761 | 0.317
AGGGUGGAGCCCACUGUGGCUCCUGACUCAGCCCU [hsa-mir-6893] | -0.967 | -0.0543 | 0.0411 | -0.0778 | 0.419
AGGUAGUGAUAUGUGCAUCUACU [hsa-mir-17] | -0.805 | 0.0812 | 0.142 | 0.31 | 0.759
AGGUAGUGUGAUUACCCAACCUACU [hsa-mir-93] | 0.373 | -0.148 | -0.179 | 0.0315 | 0.272
AGGUAGUGUUUAGUUAUCUACU [hsa-mir-20a] | 1.28 | -0.264 | 0.257 | -0.285 | -0.218
AGGUCUCCUGGCAU [hsa-mir-4256] | -0.698 | -0.274 | -0.439 | -0.164 | -0.096
AGGUGCUAGGUCGGCCUCGGC [hsa-mir-5787] | 1.28 | 0.284 | 0.351 | 1.01 | 1.47
AGGUGGAAAGGGAGCAGGAGCAUCGUCUUUAAGAGGGUCAGGUACCUUUGCUCUUA [hsa-mir-6083] | 0.244 | -0.0151 | 0.394 | 0.724 | 1.33
AGGUUCUGCUGGCUGAGAACCU [hsa-mir-3667] | 2.19 | -0.215 | -0.106 | -0.17 | 0.149
